Experimental data: US20080286312A1
One block for each substance: values may come before it.

Tests used:
H-2K^b (mouse) [1] = biological target: H-2K^b (mouse) (UniProt P01901); test: flow cytometry, RMA-S transfectant Y317-2, 37° C.
[2] = biological target: K^b/OVA257-264 complex on Y317-2 cells (H-2K^b with OVA257-264 linked to human membranal β2m) (mouse; chicken; human); test: flow cytometry, RMA-S transfectant Y317-2, 37° C.
H-2K^k (mouse) [3] = biological target: H-2K^k (mouse) (UniProt P04223); test: flow cytometry with QIFIKIT, parental MD45 cells
H-2K^k (mouse) [4] = biological target: H-2K^k (mouse) (UniProt P04223); test: flow cytometry with QIFIKIT, MD45 transfectant 427-24
H-2K^k (mouse) [5] = biological target: H-2K^k (mouse) (UniProt P04223); test: flow cytometry with QIFIKIT, MD45 transfectant 425-44
[6] = biological target: hβ2m-CD40 (human β2m fused through a bridge to the mouse CD40 transmembrane and cytoplasmic region) (human; mouse) (UniProt P61769); test: cell-based or functional assay
[7] = biological target: Ha255-262 dcβ2m (Ha255-262 - linker - human β2m - bridge - mouse CD3 ζ) (influenza virus; human; mouse) (UniProt P61769); test: flow cytometry with QIFIKIT, MD45 transfectant 427-24
[8] = biological target: NP50-57 dcβ2m (NP50-57 - linker - human β2m - bridge - mouse CD3 ζ) (influenza virus; human; mouse) (UniProt P61769); test: flow cytometry with QIFIKIT, MD45 transfectant 425-44
H-2K^k (mouse) [9] = biological target: H-2K^k (mouse) (UniProt P04223); test: derived from QIFIKIT flow cytometry with Fab13.4.1 and AF3-12.1 on 427-24 cells
H-2K^b (mouse) [10] = biological target: H-2K^b (mouse) (UniProt P01901); test: derived from MFI of 25D-1.16 and anti-H-2K^b staining of Y317-2 cells at 37° C.
H-2K^d (mouse) = H-2K^d (mouse) (UniProt P01902); test: cell-based or functional assay
Chain of UniProt P01902 (P01902 22-305 limits assumed): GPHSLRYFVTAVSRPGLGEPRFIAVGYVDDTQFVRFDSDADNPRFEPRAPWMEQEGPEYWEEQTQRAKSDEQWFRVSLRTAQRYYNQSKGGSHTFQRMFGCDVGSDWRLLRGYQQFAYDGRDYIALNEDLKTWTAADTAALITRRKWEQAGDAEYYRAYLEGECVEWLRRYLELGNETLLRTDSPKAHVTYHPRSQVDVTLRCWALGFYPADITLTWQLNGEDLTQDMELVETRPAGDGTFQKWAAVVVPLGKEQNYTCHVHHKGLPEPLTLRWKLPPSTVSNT

Chain of UniProt P04223 (P04223 22-369 limits assumed): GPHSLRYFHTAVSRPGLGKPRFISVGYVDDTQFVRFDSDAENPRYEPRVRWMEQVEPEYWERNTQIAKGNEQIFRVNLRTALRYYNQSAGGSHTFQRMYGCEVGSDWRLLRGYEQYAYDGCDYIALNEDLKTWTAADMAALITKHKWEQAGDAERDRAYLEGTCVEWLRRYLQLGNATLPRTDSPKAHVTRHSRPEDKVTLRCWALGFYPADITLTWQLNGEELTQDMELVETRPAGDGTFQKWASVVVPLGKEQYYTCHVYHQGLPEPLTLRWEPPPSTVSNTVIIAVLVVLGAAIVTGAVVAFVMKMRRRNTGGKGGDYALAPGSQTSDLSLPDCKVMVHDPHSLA
Chain of UniProt P01901 (P01901 22-369 limits assumed): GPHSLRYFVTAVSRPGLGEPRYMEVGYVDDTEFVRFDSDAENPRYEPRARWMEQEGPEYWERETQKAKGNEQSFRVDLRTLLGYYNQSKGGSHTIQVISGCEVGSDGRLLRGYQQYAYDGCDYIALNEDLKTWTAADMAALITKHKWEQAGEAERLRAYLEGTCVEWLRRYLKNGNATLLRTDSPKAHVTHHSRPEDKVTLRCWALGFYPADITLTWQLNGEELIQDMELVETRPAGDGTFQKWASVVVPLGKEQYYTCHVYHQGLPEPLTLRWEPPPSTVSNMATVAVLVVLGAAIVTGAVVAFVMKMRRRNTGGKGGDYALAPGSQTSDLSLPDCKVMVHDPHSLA

Substance: 25-D1.16 mAb specific to the complex H-2K^b/OVA257-264 (antibody)
mean fluorescence intensity [2]: 69.7 MFI

Substance: BM-63 anti-human β2m mAb (antibody)
decrease of total cellular IκBα (immunoblot) in A20 transfectant [6]: 39%
quantity of surface antigen (QIFIKIT) [7]: 173000
quantity of surface antigen (QIFIKIT) [8]: 467000

Substance: Ha255-262 dcβ2m (Ha255-262 - linker - human β2m - bridge - mouse CD3 ζ) (from UniProt P61769 21-119; P24161 31-164)
occupation of surface H-2K^k molecules (H-2K^k (mouse) [9]): 20%

Substance: hβ2m-CD40 (human β2m fused through a bridge to the mouse CD40 transmembrane and cytoplasmic region) (from UniProt P61769 21-119; P27512 194-289)
reduction of total cellular IκBα (immunoblot) in A20 transfectant after incubation with an anti-H-2 K^d mAb (H-2K^d (mouse)): 71%

More lines, now with the values ahead:

mean fluorescence intensity (H-2K^b (mouse) [1]): 122 MFI
Substance: 20-8-4 anti-H-2K^b mAb (antibody)

quantity of surface antigen (QIFIKIT) (H-2K^k (mouse) [3]): 10900
quantity of surface antigen (QIFIKIT) (H-2K^k (mouse) [4]): 28600
quantity of surface antigen (QIFIKIT) (H-2K^k (mouse) [5]): 37600
Substance: AF3-12.1 anti-K^k mAb (antibody)

H-2K^b occupancy (H-2K^b (mouse) [10]): 57%
Substance: OVA257-264 dcβ2m with human β2m and H-2K^b anchor (from UniProt P61769 21-119)
